Laboratory results from the supplement of paper PMC10266784.

B1: library; numbered along this chain (parent)
chain: MAAAAAAAAEQQSSNGPVKKSMREKAVERRSVNKEHNSNFKAGYIPIDEDRLHKTGLRGRKGNLAICVIILLFILAVINLIITLVIWAVIRIGPNGCDSMEFHESGLLRFKQVSDMGVIHPLYKSTVGGRRNENLVITGNNQPIVFQQGTTKLSVENNKTSITSDIGMQFFDPRTQNILFSTDYETHEFHLPSGVKSLNVQKASTERITSNATSDLNIKVDGRAIVRGNEGVFIMGKTIEFHMGGNMELKAENSIILNGSVMVSTTRLPSSSSGDQLGSGDWVRYKLCMCADGTLFKVQVTSQNMGCQISDNPCGNTH

Variants of: B1
Assay: SGCB cell-surface expression functional score (HA stain, bin4 vs bin1, normalised to synonymous) (log10 ratio); higher = more cell-surface SGCB (functional)
Method: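 Deep mutational scan of full-length human SGCB (YFP-SGCB-HA, NNN codon sublibraries A-F) delivered by lentivirus at low MOI into ADG-HEK293 cells stably expressing SGCA, SGCD and SGCG. YFP-positive cells were stained for surface HA on unpermeabilized cells and FACS-sorted into bins. The functional score is log10(frequency in high bin 4 / frequency in low bin 1), normalised per chunk so that synonymous variants have mean 0 and SD 0.5. Scores are the median over codons and over duplicate biological replicates; scores below -0.5 are called non-functional. Scale: negative means deleterious.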

**Q.** Which “SGCB cell-surface expression functional score (log10)” value does the source give for MAAAAAAAAEQQSSNGPVKKSMREKAVERRSVIKEHNSNFKAGYIPIDEDRLHKTGLRGRKGNLAICVIILLFILAVINLIITLVIWAVIRIGPNGCDSMEFHESGLLRFKQVSDMGVIHPLYKSTVGGRRNENLVITGNNQPIVFQQGTTKLSVENNKTSITSDIGMQFFDPRTQNILFSTDYETHEFHLPSGVKSLNVQKASTERITSNATSDLNIKVDGRAIVRGNEGVFIMGKTIEFHMGGNMELKAENSIILNGSVMVSTTRLPSSSSGDQLGSGDWVRYKLCMCADGTLFKVQVTSQNMGCQISDNPCGNTH [N33I] here?
**A.** 0.03

**Q.** Which “SGCB cell-surface expression functional score (log10)” value does the source give for MAAAAAAAAEQQSSNGPVKKSMREKAVERRSVRKEHNSNFKAGYIPIDEDRLHKTGLRGRKGNLAICVIILLFILAVINLIITLVIWAVIRIGPNGCDSMEFHESGLLRFKQVSDMGVIHPLYKSTVGGRRNENLVITGNNQPIVFQQGTTKLSVENNKTSITSDIGMQFFDPRTQNILFSTDYETHEFHLPSGVKSLNVQKASTERITSNATSDLNIKVDGRAIVRGNEGVFIMGKTIEFHMGGNMELKAENSIILNGSVMVSTTRLPSSSSGDQLGSGDWVRYKLCMCADGTLFKVQVTSQNMGCQISDNPCGNTH [N33R] here?
**A.** 0.1

**Q.** Which “SGCB cell-surface expression functional score (log10)” value does the source give for MAAAAAAAAEQQSSNGPVKKSMREKAVERRSVYKEHNSNFKAGYIPIDEDRLHKTGLRGRKGNLAICVIILLFILAVINLIITLVIWAVIRIGPNGCDSMEFHESGLLRFKQVSDMGVIHPLYKSTVGGRRNENLVITGNNQPIVFQQGTTKLSVENNKTSITSDIGMQFFDPRTQNILFSTDYETHEFHLPSGVKSLNVQKASTERITSNATSDLNIKVDGRAIVRGNEGVFIMGKTIEFHMGGNMELKAENSIILNGSVMVSTTRLPSSSSGDQLGSGDWVRYKLCMCADGTLFKVQVTSQNMGCQISDNPCGNTH [N33Y] here?
**A.** 0.04

**Q.** With MAAAAAAAAEQQSSNGPVKKSMREKAVERRSVKKEHNSNFKAGYIPIDEDRLHKTGLRGRKGNLAICVIILLFILAVINLIITLVIWAVIRIGPNGCDSMEFHESGLLRFKQVSDMGVIHPLYKSTVGGRRNENLVITGNNQPIVFQQGTTKLSVENNKTSITSDIGMQFFDPRTQNILFSTDYETHEFHLPSGVKSLNVQKASTERITSNATSDLNIKVDGRAIVRGNEGVFIMGKTIEFHMGGNMELKAENSIILNGSVMVSTTRLPSSSSGDQLGSGDWVRYKLCMCADGTLFKVQVTSQNMGCQISDNPCGNTH [N33K] as the variant, how does the “SGCB cell-surface expression functional score (log10)” value read?
**A.** 0.24

**Q.** With MAAAAAAAAEQQSSNGPVKKSMREKAVERRSVTKEHNSNFKAGYIPIDEDRLHKTGLRGRKGNLAICVIILLFILAVINLIITLVIWAVIRIGPNGCDSMEFHESGLLRFKQVSDMGVIHPLYKSTVGGRRNENLVITGNNQPIVFQQGTTKLSVENNKTSITSDIGMQFFDPRTQNILFSTDYETHEFHLPSGVKSLNVQKASTERITSNATSDLNIKVDGRAIVRGNEGVFIMGKTIEFHMGGNMELKAENSIILNGSVMVSTTRLPSSSSGDQLGSGDWVRYKLCMCADGTLFKVQVTSQNMGCQISDNPCGNTH [N33T] as the variant, how does the “SGCB cell-surface expression functional score (log10)” value read?
**A.** -0.07

**Q.** For MAAAAAAAAEQQSSNGPVKKSMREKAVERRSVSKEHNSNFKAGYIPIDEDRLHKTGLRGRKGNLAICVIILLFILAVINLIITLVIWAVIRIGPNGCDSMEFHESGLLRFKQVSDMGVIHPLYKSTVGGRRNENLVITGNNQPIVFQQGTTKLSVENNKTSITSDIGMQFFDPRTQNILFSTDYETHEFHLPSGVKSLNVQKASTERITSNATSDLNIKVDGRAIVRGNEGVFIMGKTIEFHMGGNMELKAENSIILNGSVMVSTTRLPSSSSGDQLGSGDWVRYKLCMCADGTLFKVQVTSQNMGCQISDNPCGNTH [N33S], which “SGCB cell-surface expression functional score (log10)” value is on record?
**A.** -0.01

**Q.** Which “SGCB cell-surface expression functional score (log10)” value does the source give for MAAAAAAAAEQQSSNGPVKKSMREKAVERRSVPKEHNSNFKAGYIPIDEDRLHKTGLRGRKGNLAICVIILLFILAVINLIITLVIWAVIRIGPNGCDSMEFHESGLLRFKQVSDMGVIHPLYKSTVGGRRNENLVITGNNQPIVFQQGTTKLSVENNKTSITSDIGMQFFDPRTQNILFSTDYETHEFHLPSGVKSLNVQKASTERITSNATSDLNIKVDGRAIVRGNEGVFIMGKTIEFHMGGNMELKAENSIILNGSVMVSTTRLPSSSSGDQLGSGDWVRYKLCMCADGTLFKVQVTSQNMGCQISDNPCGNTH [N33P] here?
**A.** 0.04

**Q.** With MAAAAAAAAEQQSSNGPVKKSMREKAVERRSVQKEHNSNFKAGYIPIDEDRLHKTGLRGRKGNLAICVIILLFILAVINLIITLVIWAVIRIGPNGCDSMEFHESGLLRFKQVSDMGVIHPLYKSTVGGRRNENLVITGNNQPIVFQQGTTKLSVENNKTSITSDIGMQFFDPRTQNILFSTDYETHEFHLPSGVKSLNVQKASTERITSNATSDLNIKVDGRAIVRGNEGVFIMGKTIEFHMGGNMELKAENSIILNGSVMVSTTRLPSSSSGDQLGSGDWVRYKLCMCADGTLFKVQVTSQNMGCQISDNPCGNTH [N33Q] as the variant, how does the “SGCB cell-surface expression functional score (log10)” value read?
**A.** -0.23

**Q.** For MAAAAAAAAEQQSSNGPVKKSMREKAVERRSVVKEHNSNFKAGYIPIDEDRLHKTGLRGRKGNLAICVIILLFILAVINLIITLVIWAVIRIGPNGCDSMEFHESGLLRFKQVSDMGVIHPLYKSTVGGRRNENLVITGNNQPIVFQQGTTKLSVENNKTSITSDIGMQFFDPRTQNILFSTDYETHEFHLPSGVKSLNVQKASTERITSNATSDLNIKVDGRAIVRGNEGVFIMGKTIEFHMGGNMELKAENSIILNGSVMVSTTRLPSSSSGDQLGSGDWVRYKLCMCADGTLFKVQVTSQNMGCQISDNPCGNTH [N33V], which “SGCB cell-surface expression functional score (log10)” value is on record?
**A.** 0.23
